Experimental data from patent publication US20150010574A1 (Boehringer Ingelheim, published 2015).
Positions count from the first letter of the chain named. Blank lines part the entries; values can stand above or below the binder they belong to.

Assays:
human IGF-2 [1] = target: T1, human IGF-2 (human, UniProt P01344 25-91); assay: cell-based or functional assay
human IGF-1 [2] = target: T2, human IGF-1 (human, UniProt P05019 49-118); assay: cell-based or functional assay
rat IGF-2 [3] = target: T3, rat IGF-2 (rat, UniProt P01346 25-91); assay: SPR (Biacore 3000), antibody captured by anti-human Fc, IGF antigen flowed, 25 C
T3 construct: Bought recombinant protein
Protocol: (§1) The sensor chip is coated with approximately 1000 RU of the reference antibody in flow cell 1 and approximately 1000 RU of a rabbit-anti-human Fc-gamma-specific antibody in flow cell 2 using the coupling reagents from an amine coupling kit. A target of 1000 RU is set in the surface preparation wizard of the Biacore 3000 software at a flow rate of 5 μl/min Running buffer used is HBS-EP. […] Blank runs using running buffer only are run in-between. A blank run curve is subtracted from each binding curve before affinity analysis. Data evaluation is performed using the BIAevaluation software (version 4.1, Biacore, Freiburg, Germany). The dissociation and association phases of the kinetics are fitted separately. For the separate fit of the kdiss values a time-frame of the initial 200-300 seconds in the dissociation phase is used (range of steady decrease of signal). For the separate fit of the kₐₛₛ values, initial time frames of approx 100 seconds are used (range of steady increase of signal) and for calculation the individual kdiss values are used with the 1:1 Langmuir association model. The average values with the standard deviations of the kinetic data together with the corresponding dissociation (KD) and association (KA) constants are calculated.

human IGF-2 [4] = target: T1, human IGF-2; assay: as above
Protocol: as §1

mouse IGF-2 [5] = target: T4, mouse IGF-2 (mouse, UniProt P09535 25-91); assay: as above
T4 construct: Bought recombinant protein; also called murine IGF-2
Protocol: as §1

rat IGF-1 [6] = target: T5, rat IGF-1 (rat, UniProt P08025 49-118); assay: as above
T5 construct: Bought recombinant protein
Protocol: as §1

mouse IGF-1 [7] = target: T6, mouse IGF-1 (mouse, UniProt P05017 49-118); assay: as above
T6 construct: Bought recombinant protein; also called murine IGF-1
Protocol: as §1

human IGF-1 [8] = target: T2, human IGF-1; assay: as above
Protocol: as §1

human IGF-2 [9] = target: T1, human IGF-2; assay: cell-based or functional assay; remark: listed apart in the source
human IGF-2 [10] = target: T1, human IGF-2; assay: cell-based or functional assay; remark: listed apart in the source
human IGF-1 [11] = target: T2, human IGF-1; assay: cell-based or functional assay; remark: listed apart in the source
human insulin = target: T7, human insulin (human, UniProt P01308 25-54; P01308 90-110); assay: direct ELISA, human insulin coated at 3 ug/ml, anti-human IgG-HRPO, OD 450 nm
T7 construct: Bought (Roche); coated at 3 ug/ml in the ELISA
Protocol: Fully human IgG1 antibodies that bound with high affinity to IGF-1 are also tested for binding to human IGF-1 in direct immunosorbent assays (ELISA). Assays are performed by coating human IGF-1 (R&D Systems, No. 291-G1) to 96-well Maxisorb plates at a concentration of 0.5 μg/ml overnight at 4° C. (100 μl/well). Coating buffer alone is used as a control for unspecific binding. Wells are then washed once with washing buffer (1×TBS-T) and residual binding sites are blocked with 200 μl blocking buffer for 1 hour at room temperature on an orbital shaker followed by a further wash cycle. Serial three-fold dilutions of each test antibody in blocking buffer are prepared directly on the coated plates. […] Blocking buffer alone is used as a positive control. The plates are then incubated for 2 hours at room temperature with agitation. After three wash cycles 100 μl/well of HRPO-conjugated anti-human IgG secondary reagent (Jackson ImmunoResearch Inc.) diluted in blocking buffer is added to all wells. After 2 hours incubation at room temperature with agitation the plates are washed three-times and 100 μl/well of TMB substrate solution (equal amounts of solution A and B) are pipetted into all wells. The plates are incubated for 10-20 min at RT with agitation and then the reaction is stopped by addition of 100 μl/well 1 M phosphoric acid. The absorbance is measured at a wavelength of 450 nm (reference 650 nm).

human IGF-1 [12] = target: T2, human IGF-1; assay: electrochemiluminescence-based equilibrium titration (BioVeris)
rat IGF-1 [13] = target: T5, rat IGF-1; assay: direct ELISA, rat IGF-1 coated on the plate, anti-human IgG-HRPO, OD 450 nm
Protocol: (§2) Fully human IgG1 antibodies that bound with high affinity to IGF-1 are also tested for binding to human IGF-1 in direct immunosorbent assays (ELISA). Assays are performed by coating human IGF-1 (R&D Systems, No. 291-G1) to 96-well Maxisorb plates at a concentration of 0.5 μg/ml overnight at 4° C. (100 μl/well). Coating buffer alone is used as a control for unspecific binding. Wells are then washed once with washing buffer (1×TBS-T) and residual binding sites are blocked with 200 μl blocking buffer for 1 hour at room temperature on an orbital shaker followed by a further wash cycle. Serial three-fold dilutions of each test antibody in blocking buffer are prepared directly on the coated plates. […] Blocking buffer alone is used as a positive control. The plates are then incubated for 2 hours at room temperature with agitation. After three wash cycles 100 μl/well of HRPO-conjugated anti-human IgG secondary reagent (Jackson ImmunoResearch Inc.) diluted in blocking buffer is added to all wells. After 2 hours incubation at room temperature with agitation the plates are washed three-times and 100 μl/well of TMB substrate solution (equal amounts of solution A and B) are pipetted into all wells. […] The absorbance is measured at a wavelength of 450 nm (reference 650 nm).

rat IGF-2 [14] = target: T3, rat IGF-2; assay: direct ELISA, rat IGF-2 coated on the plate, anti-human IgG-HRPO, OD 450 nm
Protocol: as §2

mouse IGF-1 [15] = target: T6, mouse IGF-1; assay: direct ELISA, mouse IGF-1 coated on the plate, anti-human IgG-HRPO, OD 450 nm
Protocol: as §2

mouse IGF-2 [16] = target: T4, mouse IGF-2; assay: direct ELISA, mouse IGF-2 coated on the plate, anti-human IgG-HRPO, OD 450 nm
Protocol: as §2

T3 sequence (P01346 25-91 limits assumed): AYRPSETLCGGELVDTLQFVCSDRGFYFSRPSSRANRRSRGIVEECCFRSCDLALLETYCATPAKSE
T2 sequence (P05019 49-118): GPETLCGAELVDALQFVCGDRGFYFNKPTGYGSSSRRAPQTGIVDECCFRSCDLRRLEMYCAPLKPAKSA
T1 sequence (P01344 25-91 limits assumed): as the sequence (P01346 25-91 limits assumed) above, with S22G, S32A, A35V, N36S counted along it
T4 sequence (P09535 25-91 limits assumed): as the sequence (P01346 25-91 limits assumed) above, with R3G, S5G counted along it
T7 sequence (P01308 25-54 limits assumed, chain 1 of 2): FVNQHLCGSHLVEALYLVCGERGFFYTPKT
T7 sequence (P01308 90-110 limits assumed, chain 2 of 2): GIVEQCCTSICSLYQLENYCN
T6 sequence (P05017 49-118 limits assumed): as the sequence (P05019 49-118) above, with D20P, S35I, A67T, S69A counted along it
T5 sequence (P08025 49-118 limits assumed): as the sequence (P05019 49-118) above, with D20P, S35I, A67T counted along it

IC50 of IGF-2 (100 ng/mL) induced IGF-1R phosphorylation, cell based ELISA (human IGF-2 [1]): 1.12 µg/mL | IC50 of IGF-1 (20 ng/mL) induced IGF-1R phosphorylation, cell based ELISA (human IGF-1 [2]): 0.09 µg/mL | Kd (rat IGF-2 [3]): 2.41 nM | koff (rat IGF-2 [3]): 0.00613 s⁻¹ | kon (rat IGF-2 [3]): 2.56e+06 M⁻¹ s⁻¹ | Kd (human IGF-2 [4]): 0.913 nM | koff (human IGF-2 [4]): 0.00353 s⁻¹ | kon (human IGF-2 [4]): 3.97e+06 M⁻¹ s⁻¹ | Kd (mouse IGF-2 [5]): 13.4 nM | koff (mouse IGF-2 [5]): 0.011 s⁻¹ | kon (mouse IGF-2 [5]): 868000 M⁻¹ s⁻¹ | Kd (rat IGF-1 [6]): 0.07 nM | koff (rat IGF-1 [6]): 0.000253 s⁻¹ | kon (rat IGF-1 [6]): 3.81e+06 M⁻¹ s⁻¹ | Kd (mouse IGF-1 [7]): 0.33 nM | koff (mouse IGF-1 [7]): 0.000323 s⁻¹ | kon (mouse IGF-1 [7]): 1e+06 M⁻¹ s⁻¹ | Kd (human IGF-1 [8]): 0.07 nM | koff (human IGF-1 [8]): 0.000301 s⁻¹ | kon (human IGF-1 [8]): 4.74e+06 M⁻¹ s⁻¹ | IC50 of IGF-2 (100 ng/mL) induced IR-A phosphorylation, cell based ELISA (human IGF-2 [9]): 0.82 µg/mL | IC50 of IGF-2 induced COLO 205 cell proliferation (human IGF-2 [10]): 0.632 µg/mL | IC50 of IGF-2 induced MCF7 cell proliferation (human IGF-2 [10]): 0.0812 µg/mL | IC50 of IGF-1 induced COLO-205 cell proliferation (human IGF-1 [11]): 0.165 µg/mL | IC50 of IGF-1 induced MCF7 cell proliferation (human IGF-1 [11]): 0.0386 µg/mL | binding result (human insulin): no binding (tested: 50 ng/mL) | Kd (human IGF-1 [12]): 0.13 nM
B1: antibody 60833 (antibody, human IgG1, lambda, V domains shown)
VH: QVELVESGGGLVQPGGSLRLSCAASGFTFTSYWMSWVRQAPGKGLELVSSITSYGSFTYYADSVKGRFTISRDNSKNTLYLQMNSLRAEDTAVYYCARNMYTHFDSWGQGTLVTVSS
VL: DIVLTQPPSVSGAPGQRVTISCSGSSSNIGSNSVSWYQQLPGTAPKLLIYDNSKRPSGVPDRFSGSKSGTSASLAITGLQSEDEADYYCQSRDTYGYYWVFGGGTKLTVLG
notes: Fully human IgG1 with Ig lambda light chain

binding result (rat IGF-1 [13]): binds | binding result (rat IGF-2 [14]): binds | binding result (mouse IGF-1 [15]): binds | IC50 of IGF-2 induced COLO 205 cell proliferation (human IGF-2 [10]): 0.576 µg/mL | IC50 of IGF-2 induced MCF7 cell proliferation (human IGF-2 [10]): 0.0782 µg/mL | IC50 of IGF-1 induced COLO-205 cell proliferation (human IGF-1 [11]): 0.135 µg/mL | IC50 of IGF-1 induced MCF7 cell proliferation (human IGF-1 [11]): 0.0241 µg/mL | binding result (human insulin): no binding (tested: 50 ng/mL) | Kd (human IGF-1 [12]): 0.18 nM | binding result (mouse IGF-2 [16]): binds
B2: antibody 60814 (antibody, human IgG1, lambda, V domains shown)
VH: QVELVESGGGLVQPGGSLRLSCAASGFTFSNYWMHWVRQAPGKGLEWVSGISGWSSWTYYADSVKGRFTISRDNSKNTLYLQMNSLRAEDTAVYYCARFGIDAYTKVYFDYWGQGTLVTVSS
VL: DIELTQPPSVSVAPGQTARISCSGDNIPLKYVSWYQQKPGQAPVLVIHDDNKRPSGIPERFSGSNSGNTATLTISGTQAEDEADYYCSSWDTLDIFNVFGGGTKLTVLG
notes: as for B1

binding result (rat IGF-1 [13]): binds | binding result (rat IGF-2 [14]): binds | binding result (mouse IGF-1 [15]): binds | IC50 of IGF-2 induced COLO 205 cell proliferation (human IGF-2 [10]): 0.101 µg/mL | IC50 of IGF-2 induced MCF7 cell proliferation (human IGF-2 [10]): 0.0408 µg/mL | IC50 of IGF-1 induced COLO-205 cell proliferation (human IGF-1 [11]): 0.217 µg/mL | IC50 of IGF-1 induced MCF7 cell proliferation (human IGF-1 [11]): 0.054 µg/mL | binding result (human insulin): no binding (tested: 50 ng/mL) | Kd (human IGF-1 [12]): 0.19 nM | binding result (mouse IGF-2 [16]): binds
B3: antibody 60819 (antibody, human IgG1, lambda, V domains shown)
VH: B2 VH
VL: B2 VL with S88Q, W90Y, T92Y, L93F, D94P, I95K, N97V
notes: as for B1
